According to publication PMC4410316:
Where two headings read alike, the source gives them in different places.

Tests used:
human thrombin (HT) [1] = target: T1, human thrombin (HT) (Homo sapiens (human), UniProt P00734;P00734 328-363;364-622); test: nanopore single-molecule titration
human thrombin (HT) [2] = target: T1, human thrombin (HT); test: nanopore single-molecule titration; remark: listed apart in the source
human thrombin (HT) [3] = target: T1, human thrombin (HT); test: nanopore single-molecule titration; remark: listed apart in the source
human thrombin (HT) [4] = target: T1, human thrombin (HT); test: nanopore single-molecule titration; remark: listed apart in the source
human thrombin (HT) [5] = target: T1, human thrombin (HT); test: nanopore single-molecule

GGTTGGTGTGGTTGG (structured_DNA) [TBA]
Kd (human thrombin (HT) [1]): 8 ± 1 nM
Kd (human thrombin (HT) [2]): 13 ± 3 nM

GGATGGTGTGGTTGG (structured_DNA) [TBA-T3A]
Kd (human thrombin (HT) [3]): 6 ± 1 nM

GGTTGGTGTGGATGG (structured_DNA) [TBA-T12A]
Kd (human thrombin (HT) [4]): 7 ± 1 nM

CACCATCACCACCATCAT (ssDNA) [Random DNA]
binding result (human thrombin (HT) [5]): no binding
